One block for each binder: values may come before it.
Key:
[1] = biological target: FcγRIII (CD16) on NK cells (human, UniProt P08637 17-254); assay: cell-based or functional assay
[2] = biological target: T1, CD20 expressed on cells (human Daudi Burkitt's lymphoma cells); CD20-transfected mouse NS0 cells; human … (human, UniProt P11836 1-297); assay: flow cytometry on CD20-expressing cells (Daudi by legend paragraph 36 and paragraph 140; the method paragraph 139 names Ramos), detection with TRITC F(ab')2 goat anti-human IgG Fcγ
T1 construct: whole, on cells; SU-DHL4 cells also express CD47 at low levels; also called NS0/CD20
T1 sequence (looked up): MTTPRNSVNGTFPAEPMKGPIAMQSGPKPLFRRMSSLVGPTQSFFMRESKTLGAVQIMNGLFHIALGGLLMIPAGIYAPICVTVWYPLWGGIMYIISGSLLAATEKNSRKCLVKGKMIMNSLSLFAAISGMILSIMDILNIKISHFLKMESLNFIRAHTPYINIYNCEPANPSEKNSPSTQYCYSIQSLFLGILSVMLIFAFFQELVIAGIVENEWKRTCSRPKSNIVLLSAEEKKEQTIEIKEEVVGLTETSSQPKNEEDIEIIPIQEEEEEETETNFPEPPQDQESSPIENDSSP

[3] = biological target: T2, CD47 expressed on cells (human U937 histiocytic lymphoma cells; human SU-DHL4 cells; human A431 cells) (human, UniProt Q08722 19-323); assay: flow cytometry on U937 cells (CD47+, CD20-), detection with TRITC F(ab')2 goat anti-human IgG Fcγ
T2 construct: whole, on cells

[4] = biological target: T1, CD20 expressed on cells (human Daudi …); assay: flow cytometry on CD20-transfected NS0 cells, detection with TRITC F(ab')2 goat anti-human IgG Fcγ
[5] = biological target: T1, CD20 expressed on cells (human Daudi …); assay: flow cytometry on Daudi cells (CD20+, CD52-), detection with TRITC F(ab')2 goat anti-human IgG Fcγ

Sequence of FcγRIII (CD16) on NK cells (P08637 17-254): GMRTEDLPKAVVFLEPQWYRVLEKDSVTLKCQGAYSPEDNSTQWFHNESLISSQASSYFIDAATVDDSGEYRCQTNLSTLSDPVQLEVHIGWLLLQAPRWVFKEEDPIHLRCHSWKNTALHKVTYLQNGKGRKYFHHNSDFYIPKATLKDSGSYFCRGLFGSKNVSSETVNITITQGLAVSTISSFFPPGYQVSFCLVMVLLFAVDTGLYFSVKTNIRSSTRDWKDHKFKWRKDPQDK

EC50 (read off the curve) [5]: ~5 mg/L
B3: anti-CD20/anti-CD52 TetBiAb (bispecific antibody, human IgG1, kappa)
chain: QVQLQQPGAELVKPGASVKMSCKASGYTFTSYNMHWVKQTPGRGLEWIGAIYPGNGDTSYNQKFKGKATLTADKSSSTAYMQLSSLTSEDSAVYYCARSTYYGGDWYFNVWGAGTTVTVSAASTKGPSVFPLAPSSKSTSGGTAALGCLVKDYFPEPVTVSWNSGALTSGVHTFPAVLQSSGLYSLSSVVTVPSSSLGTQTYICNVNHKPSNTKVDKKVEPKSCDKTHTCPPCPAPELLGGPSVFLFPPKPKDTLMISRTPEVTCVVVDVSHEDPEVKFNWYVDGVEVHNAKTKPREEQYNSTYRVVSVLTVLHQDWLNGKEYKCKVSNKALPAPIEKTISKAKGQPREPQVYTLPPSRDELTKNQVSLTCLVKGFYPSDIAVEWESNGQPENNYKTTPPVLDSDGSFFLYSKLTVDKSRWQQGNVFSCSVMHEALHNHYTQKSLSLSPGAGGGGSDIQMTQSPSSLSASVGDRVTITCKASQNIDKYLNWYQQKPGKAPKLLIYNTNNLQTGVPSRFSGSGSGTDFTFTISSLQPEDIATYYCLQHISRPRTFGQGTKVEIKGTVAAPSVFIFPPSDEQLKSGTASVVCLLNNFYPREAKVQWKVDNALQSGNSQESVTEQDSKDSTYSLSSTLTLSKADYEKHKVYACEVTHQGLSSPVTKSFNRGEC
light: QIVLSQSPAILSASPGEKVTMTCRASSSVSYIHWFQQKPGSSPKPWIYATSNLASGVPVRFSGSGSGTSYSLTISRVEAEDAATYYCQQWTSNPPTFGGGTKLEIKRGTVAAPSVFIFPPSDEQLKSGTASVVCLLNNFYPREAKVQWKVDNALQSGNSQESVTEQDSKDSTYSLSSTLTLSKADYEKHKVYACEVTHQGLSSPVTKSFNRGEC
heavy: QVQLQESGPGLVRPSQTLSLTCTVSGFTFTDFYMNWVRQPPGRGLEWIGFIRDKAKGYTTEYNPSVKGRVTMLVDTSKNQFSLRLSSVTAADTAVYYCAREGHTAAPFDYWGQGSLVTVSAASTKGPSVFPLAPSSKSTSGGTAALGCLVKDYFPEPVTVSWNSGALTSGVHTFPAVLQSSGLYSLSSVVTVPSSSLGTQTYICNVNHKPSNTKVDKKVEPKSC
notes: Hexameric TetBiAb from 2B8 and Campath, IgG1 Fc

binding result [5]: no binding (tested: 100 µg/ml)
B4: anti-CD52/anti-CD20 TetBiAb (bispecific antibody, human IgG1, kappa)
chain: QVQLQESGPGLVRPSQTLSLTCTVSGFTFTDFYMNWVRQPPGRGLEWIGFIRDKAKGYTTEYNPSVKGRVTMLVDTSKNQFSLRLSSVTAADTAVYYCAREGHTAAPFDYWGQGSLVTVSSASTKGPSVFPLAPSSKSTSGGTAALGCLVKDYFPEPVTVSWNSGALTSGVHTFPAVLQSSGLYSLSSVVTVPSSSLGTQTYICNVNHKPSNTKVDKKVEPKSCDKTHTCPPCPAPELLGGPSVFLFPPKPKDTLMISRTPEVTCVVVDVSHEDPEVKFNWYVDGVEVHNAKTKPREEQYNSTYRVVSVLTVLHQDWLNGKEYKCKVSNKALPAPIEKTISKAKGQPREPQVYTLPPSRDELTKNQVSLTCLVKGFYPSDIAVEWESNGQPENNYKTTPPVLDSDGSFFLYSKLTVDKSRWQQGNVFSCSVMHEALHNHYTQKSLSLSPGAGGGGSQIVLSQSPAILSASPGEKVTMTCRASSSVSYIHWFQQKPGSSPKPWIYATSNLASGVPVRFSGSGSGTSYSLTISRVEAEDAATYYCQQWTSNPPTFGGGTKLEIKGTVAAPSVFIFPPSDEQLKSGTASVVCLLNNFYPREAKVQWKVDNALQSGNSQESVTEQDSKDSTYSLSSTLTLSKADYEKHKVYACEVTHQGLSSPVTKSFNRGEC
light: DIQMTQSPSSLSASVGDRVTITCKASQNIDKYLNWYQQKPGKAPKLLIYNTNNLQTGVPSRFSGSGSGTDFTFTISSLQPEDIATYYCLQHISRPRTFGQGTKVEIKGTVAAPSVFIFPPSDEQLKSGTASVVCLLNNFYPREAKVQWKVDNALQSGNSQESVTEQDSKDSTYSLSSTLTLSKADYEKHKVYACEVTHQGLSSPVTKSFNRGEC
heavy: QVQLQQPGAELVKPGASVKMSCKASGYTFTSYNMHWVKQTPGRGLEWIGAIYPGNGDTSYNQKFKGKATLTADKSSSTAYMQLSSLTSEDSAVYYCARSTYYGGDWYFNVWGAGTTVTVSAASTKGPSVFPLAPSSKSTSGGTAALGCLVKDYFPEPVTVSWNSGALTSGVHTFPAVLQSSGLYSLSSVVTVPSSSLGTQTYICNVNHKPSNTKVDKKVEPKSC
notes: Hexameric TetBiAb from Campath and 2B8, IgG1 Fc

Second part, the binder before the results:

B1: anti-CD20/anti-CD16 TetBiAb (bispecific antibody)
chain: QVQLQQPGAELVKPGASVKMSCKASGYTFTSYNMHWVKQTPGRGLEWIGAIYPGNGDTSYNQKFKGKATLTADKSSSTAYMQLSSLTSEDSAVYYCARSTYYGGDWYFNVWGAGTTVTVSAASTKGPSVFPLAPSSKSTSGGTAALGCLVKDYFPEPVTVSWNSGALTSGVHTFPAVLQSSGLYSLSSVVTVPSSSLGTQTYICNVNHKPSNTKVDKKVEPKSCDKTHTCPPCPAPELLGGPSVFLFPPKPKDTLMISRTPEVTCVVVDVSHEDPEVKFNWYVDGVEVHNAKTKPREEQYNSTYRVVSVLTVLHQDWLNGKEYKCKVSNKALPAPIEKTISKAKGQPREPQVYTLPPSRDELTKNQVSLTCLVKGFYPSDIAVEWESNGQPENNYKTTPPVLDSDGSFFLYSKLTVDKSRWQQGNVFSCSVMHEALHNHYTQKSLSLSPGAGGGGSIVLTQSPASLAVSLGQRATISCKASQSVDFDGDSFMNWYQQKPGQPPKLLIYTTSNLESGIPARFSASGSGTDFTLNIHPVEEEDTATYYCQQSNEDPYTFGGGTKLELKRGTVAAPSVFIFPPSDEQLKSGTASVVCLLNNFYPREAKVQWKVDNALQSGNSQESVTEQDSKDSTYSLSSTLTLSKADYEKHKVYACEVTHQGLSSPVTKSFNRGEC
light: QIVLSQSPAILSASPGEKVTMTCRASSSVSYIHWFQQKPGSSPKPWIYATSNLASGVPVRFSGSGSGTSYSLTISRVEAEDAATYYCQQWTSNPPTFGGGTKLEIKRGTVAAPSVFIFPPSDEQLKSGTASVVCLLNNFYPREAKVQWKVDNALQSGNSQESVTEQDSKDSTYSLSSTLTLSKADYEKHKVYACEVTHQGLSSPVTKSFNRGEC
heavy: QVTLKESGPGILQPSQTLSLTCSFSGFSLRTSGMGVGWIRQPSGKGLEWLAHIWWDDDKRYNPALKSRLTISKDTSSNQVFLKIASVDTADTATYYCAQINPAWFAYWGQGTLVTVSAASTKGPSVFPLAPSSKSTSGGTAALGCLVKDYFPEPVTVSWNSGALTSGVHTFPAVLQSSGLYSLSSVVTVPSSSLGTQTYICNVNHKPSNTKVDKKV
notes: Hexameric TetBiAb from 2B8 and 3G8, IgG1 Fc
antibody-dependent cell-mediated cytotoxicity (ADCC), LDH release from Ramos cells with NK effector cells [1]: 10 fold
EC50 (read off the curve) [2]: ~3 mg/L

B2: anti-CD20/anti-CD47 TetBiAb (bispecific antibody, human IgG1, kappa)
chain: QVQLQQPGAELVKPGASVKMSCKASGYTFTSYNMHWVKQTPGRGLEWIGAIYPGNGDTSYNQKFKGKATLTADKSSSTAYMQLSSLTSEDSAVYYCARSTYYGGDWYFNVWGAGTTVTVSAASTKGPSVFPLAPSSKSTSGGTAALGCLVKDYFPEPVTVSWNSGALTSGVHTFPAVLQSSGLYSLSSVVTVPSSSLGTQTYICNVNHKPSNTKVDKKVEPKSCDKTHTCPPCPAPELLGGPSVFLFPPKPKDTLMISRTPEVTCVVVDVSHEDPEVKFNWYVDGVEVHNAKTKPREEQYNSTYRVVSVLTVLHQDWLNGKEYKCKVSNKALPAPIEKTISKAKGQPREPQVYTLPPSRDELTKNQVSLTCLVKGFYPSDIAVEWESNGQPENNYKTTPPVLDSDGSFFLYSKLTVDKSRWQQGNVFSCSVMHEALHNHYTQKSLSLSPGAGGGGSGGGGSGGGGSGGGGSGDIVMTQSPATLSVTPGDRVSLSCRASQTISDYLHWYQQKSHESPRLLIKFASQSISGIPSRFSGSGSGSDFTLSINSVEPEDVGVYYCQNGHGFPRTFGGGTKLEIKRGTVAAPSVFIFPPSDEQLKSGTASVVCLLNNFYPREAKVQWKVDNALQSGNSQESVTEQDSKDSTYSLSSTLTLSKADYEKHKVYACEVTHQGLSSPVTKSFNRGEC
light: QIVLSQSPAILSASPGEKVTMTCRASSSVSYIHWFQQKPGSSPKPWIYATSNLASGVPVRFSGSGSGTSYSLTISRVEAEDAATYYCQQWTSNPPTFGGGTKLEIKRGTVAAPSVFIFPPSDEQLKSGTASVVCLLNNFYPREAKVQWKVDNALQSGNSQESVTEQDSKDSTYSLSSTLTLSKADYEKHKVYACEVTHQGLSSPVTKSFNRGEC
heavy: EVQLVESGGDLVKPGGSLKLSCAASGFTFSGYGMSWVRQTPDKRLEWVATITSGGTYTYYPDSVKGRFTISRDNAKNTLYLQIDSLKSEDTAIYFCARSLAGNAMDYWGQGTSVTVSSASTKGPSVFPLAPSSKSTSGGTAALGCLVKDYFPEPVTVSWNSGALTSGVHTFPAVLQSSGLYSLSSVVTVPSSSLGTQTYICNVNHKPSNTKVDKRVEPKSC
notes: Hexameric TetBiAb from 2B8 and B6H12, IgG1 Fc; Alexa 488-labelled in the SU-DHL4 assay
EC50 (read off the curve) [3]: ~10 mg/L
binding result [4]: binds

From US20160009824A1 (Merck KGaA, published 2016)
